Values quoted from earlier work in paper PMC6006206.

Biological target: SufE (UniProt A7ZME4)
Chain of UniProt A7ZME4 (A7ZME4 whole entry): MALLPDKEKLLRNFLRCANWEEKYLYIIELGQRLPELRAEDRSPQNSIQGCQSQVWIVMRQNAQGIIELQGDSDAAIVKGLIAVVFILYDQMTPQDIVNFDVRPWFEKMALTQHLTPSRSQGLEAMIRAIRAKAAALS

- Kd: 0.36 µM
Substance: SufS (from UniProt A7ZME5)
